Sequences and labels used below:
T1: EsCas13d, nuclease-dead (Eubacterium siraeum, UniProt B0MS50, R295A;H300A;R849A;H854A)
T1 sequence: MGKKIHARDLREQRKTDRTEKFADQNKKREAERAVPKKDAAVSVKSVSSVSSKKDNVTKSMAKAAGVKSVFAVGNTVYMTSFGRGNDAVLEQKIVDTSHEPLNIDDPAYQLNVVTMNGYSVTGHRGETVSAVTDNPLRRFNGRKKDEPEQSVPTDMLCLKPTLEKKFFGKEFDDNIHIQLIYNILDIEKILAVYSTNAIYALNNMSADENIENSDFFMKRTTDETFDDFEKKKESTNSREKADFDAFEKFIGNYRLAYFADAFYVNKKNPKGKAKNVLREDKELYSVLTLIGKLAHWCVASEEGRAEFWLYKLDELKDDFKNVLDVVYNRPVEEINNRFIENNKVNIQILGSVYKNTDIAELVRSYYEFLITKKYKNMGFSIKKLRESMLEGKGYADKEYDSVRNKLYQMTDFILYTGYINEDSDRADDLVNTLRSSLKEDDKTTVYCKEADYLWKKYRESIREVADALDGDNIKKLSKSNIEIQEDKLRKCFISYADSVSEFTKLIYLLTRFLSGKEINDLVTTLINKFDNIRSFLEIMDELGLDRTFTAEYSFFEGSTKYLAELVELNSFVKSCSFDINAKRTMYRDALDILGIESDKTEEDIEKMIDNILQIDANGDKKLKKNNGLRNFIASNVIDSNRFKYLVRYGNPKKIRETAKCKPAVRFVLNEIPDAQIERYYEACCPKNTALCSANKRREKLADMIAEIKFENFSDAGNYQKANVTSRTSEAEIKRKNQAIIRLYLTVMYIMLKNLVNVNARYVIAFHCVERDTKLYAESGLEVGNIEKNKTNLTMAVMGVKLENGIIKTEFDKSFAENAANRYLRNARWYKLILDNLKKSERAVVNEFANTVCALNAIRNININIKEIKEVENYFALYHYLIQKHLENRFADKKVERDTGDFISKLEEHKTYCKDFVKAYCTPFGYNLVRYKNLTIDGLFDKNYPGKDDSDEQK

B1: target 1 MT 5'PFS GAG 3'PFS ACA (mixed)
RNA 1: CACCCGUGCAAAAAUGCAGGGGUCUAAAACUGAGCGGAUAACCUCUCUAUGG
RNA 2: GGGAAUGGAUCCACAUCUACGAAUUCGAGCCAUAGAGAGGUUAUCCGCUCAACAAGAUCGGAAGAGCACACGU
B2: target 1 MT 5'PFS GUG 3'PFS CCC (mixed)
RNA 1: CACCCGUGCAAAAAUGCAGGGGUCUAAAACUGAGCGGAUAACCUCUCUAUGG
RNA 2: GGGAAUGGAUCCACAUCUACGAAUUCGUGCCAUAGAGAGGUUAUCCGCUCACCCAGAUCGGAAGAGCACACGU
B3: target 1 MT 5'PFS UUG 3'PFS UUG (mixed)
RNA 1: CACCCGUGCAAAAAUGCAGGGGUCUAAAACUGAGCGGAUAACCUCUCUAUGG
RNA 2: GGGAAUGGAUCCACAUCUACGAAUUCUUGCCAUAGAGAGGUUAUCCGCUCAUUGAGAUCGGAAGAGCACACGU
B4: target 1 MT 5'PFS GGA 3'PFS AUU (mixed)
RNA 1: CACCCGUGCAAAAAUGCAGGGGUCUAAAACUGAGCGGAUAACCUCUCUAUGG
RNA 2: GGGAAUGGAUCCACAUCUACGAAUUCGGACCAUAGAGAGGUUAUCCGCUCAAUUAGAUCGGAAGAGCACACGU
B5: target 1 MT 5'PFS GGA 3'PFS UGA (mixed)
RNA 1: CACCCGUGCAAAAAUGCAGGGGUCUAAAACUGAGCGGAUAACCUCUCUAUGG
RNA 2: GGGAAUGGAUCCACAUCUACGAAUUCGGACCAUAGAGAGGUUAUCCGCUCAUGAAGAUCGGAAGAGCACACGU
B6: target 1 MT 5'PFS GUG 3'PFS CCG (mixed)
RNA 1: CACCCGUGCAAAAAUGCAGGGGUCUAAAACUGAGCGGAUAACCUCUCUAUGG
RNA 2: GGGAAUGGAUCCACAUCUACGAAUUCGUGCCAUAGAGAGGUUAUCCGCUCACCGAGAUCGGAAGAGCACACGU
B7: target 1 MT 5'PFS CCA 3'PFS UAA (mixed)
RNA 1: CACCCGUGCAAAAAUGCAGGGGUCUAAAACUGAGCGGAUAACCUCUCUAUGG
RNA 2: GGGAAUGGAUCCACAUCUACGAAUUCCCACCAUAGAGAGGUUAUCCGCUCAUAAAGAUCGGAAGAGCACACGU
B8: target 1 MT 5'PFS CAU 3'PFS ACU (mixed)
RNA 1: CACCCGUGCAAAAAUGCAGGGGUCUAAAACUGAGCGGAUAACCUCUCUAUGG
RNA 2: GGGAAUGGAUCCACAUCUACGAAUUCCAUCCAUAGAGAGGUUAUCCGCUCAACUAGAUCGGAAGAGCACACGU
B9: target 1 del5,del13 (mixed)
RNA 1: CACCCGUGCAAAAAUGCAGGGGUCUAAAACUGAGCGGAUAACCUCUCUAUGG
RNA 2: GGGAAUGGAUCCACAUCUACGAAUUCGUACCAUAGAGAGUUAUCCCUCACCGAGAUCGGAAGAGCACACGU
B10: target 1 MT 5'PFS CAA 3'PFS UGA (mixed)
RNA 1: CACCCGUGCAAAAAUGCAGGGGUCUAAAACUGAGCGGAUAACCUCUCUAUGG
RNA 2: GGGAAUGGAUCCACAUCUACGAAUUCCAACCAUAGAGAGGUUAUCCGCUCAUGAAGAUCGGAAGAGCACACGU
B11: target 1 MT 5'PFS GGA 3'PFS AUC (mixed)
RNA 1: CACCCGUGCAAAAAUGCAGGGGUCUAAAACUGAGCGGAUAACCUCUCUAUGG
RNA 2: GGGAAUGGAUCCACAUCUACGAAUUCGGACCAUAGAGAGGUUAUCCGCUCAAUCAGAUCGGAAGAGCACACGU
B12: target 1 MT 5'PFS UGC 3'PFS UAU (mixed)
RNA 1: CACCCGUGCAAAAAUGCAGGGGUCUAAAACUGAGCGGAUAACCUCUCUAUGG
RNA 2: GGGAAUGGAUCCACAUCUACGAAUUCUGCCCAUAGAGAGGUUAUCCGCUCAUAUAGAUCGGAAGAGCACACGU
B13: target 1 MT 5'PFS GGA 3'PFS AUG (mixed)
RNA 1: CACCCGUGCAAAAAUGCAGGGGUCUAAAACUGAGCGGAUAACCUCUCUAUGG
RNA 2: GGGAAUGGAUCCACAUCUACGAAUUCGGACCAUAGAGAGGUUAUCCGCUCAAUGAGAUCGGAAGAGCACACGU
B14: target 1 MT 5'PFS GGA 3'PFS UGC (mixed)
RNA 1: CACCCGUGCAAAAAUGCAGGGGUCUAAAACUGAGCGGAUAACCUCUCUAUGG
RNA 2: GGGAAUGGAUCCACAUCUACGAAUUCGGACCAUAGAGAGGUUAUCCGCUCAUGCAGAUCGGAAGAGCACACGU
B15: target 1 MT 5'PFS GUG 3'PFS CCU (mixed)
RNA 1: CACCCGUGCAAAAAUGCAGGGGUCUAAAACUGAGCGGAUAACCUCUCUAUGG
RNA 2: GGGAAUGGAUCCACAUCUACGAAUUCGUGCCAUAGAGAGGUUAUCCGCUCACCUAGAUCGGAAGAGCACACGU
B16: target 1 MT 5'PFS CAU 3'PFS UCU (mixed)
RNA 1: CACCCGUGCAAAAAUGCAGGGGUCUAAAACUGAGCGGAUAACCUCUCUAUGG
RNA 2: GGGAAUGGAUCCACAUCUACGAAUUCCAUCCAUAGAGAGGUUAUCCGCUCAUCUAGAUCGGAAGAGCACACGU
B17: target 1 MT 5'PFS GUG 3'PFS CCA (mixed)
RNA 1: CACCCGUGCAAAAAUGCAGGGGUCUAAAACUGAGCGGAUAACCUCUCUAUGG
RNA 2: GGGAAUGGAUCCACAUCUACGAAUUCGUGCCAUAGAGAGGUUAUCCGCUCACCAAGAUCGGAAGAGCACACGU
B18: target 1 insU 3' of 2,insC 3' of 1 (mixed)
RNA 1: CACCCGUGCAAAAAUGCAGGGGUCUAAAACUGAGCGGAUAACCUCUCUAUGG
RNA 2: GGGAAUGGAUCCACAUCUACGAAUUCGUACCAUAGAGAGGUUAUCCGCUCUACCCGAGAUCGGAAGAGCACACGU
B19: target 1 MT 5'PFS CAU 3'PFS UCA (mixed)
RNA 1: CACCCGUGCAAAAAUGCAGGGGUCUAAAACUGAGCGGAUAACCUCUCUAUGG
RNA 2: GGGAAUGGAUCCACAUCUACGAAUUCCAUCCAUAGAGAGGUUAUCCGCUCAUCAAGAUCGGAAGAGCACACGU
B20: target 1 insU 3' of 18,insA 3' of 12 (mixed)
RNA 1: CACCCGUGCAAAAAUGCAGGGGUCUAAAACUGAGCGGAUAACCUCUCUAUGG
RNA 2: GGGAAUGGAUCCACAUCUACGAAUUCGUACCAUAUGAGAGGAUUAUCCGCUCACCGAGAUCGGAAGAGCACACGU
B21: target 1 MT 5'PFS GGA 3'PFS UGU (mixed)
RNA 1: CACCCGUGCAAAAAUGCAGGGGUCUAAAACUGAGCGGAUAACCUCUCUAUGG
RNA 2: GGGAAUGGAUCCACAUCUACGAAUUCGGACCAUAGAGAGGUUAUCCGCUCAUGUAGAUCGGAAGAGCACACGU
B22: target 1 MT 5'PFS GGA 3'PFS AUA (mixed)
RNA 1: CACCCGUGCAAAAAUGCAGGGGUCUAAAACUGAGCGGAUAACCUCUCUAUGG
RNA 2: GGGAAUGGAUCCACAUCUACGAAUUCGGACCAUAGAGAGGUUAUCCGCUCAAUAAGAUCGGAAGAGCACACGU
B23: target 1 MT 5'PFS UCG 3'PFS ACC (mixed)
RNA 1: CACCCGUGCAAAAAUGCAGGGGUCUAAAACUGAGCGGAUAACCUCUCUAUGG
RNA 2: GGGAAUGGAUCCACAUCUACGAAUUCUCGCCAUAGAGAGGUUAUCCGCUCAACCAGAUCGGAAGAGCACACGU

Broadly, the Kd is the equilibrium constant for the complex coming apart. Higher therefore signals a looser complex.

The target of this series is T1, EsCas13d, nuclease-dead. Nature of the series: crRNA (strand 1, pre-loaded); Mg2+; 40 mM Tris-HCl pH 7.5, 150 mM NaCl, 6 mM MgCl2, 1 mM DTT, 0.1% Tween-20, 0.2 mg/ml BSA; 25 C; 10 min per concentration, then washed. The conditions noted are these: tags: His6-TwinStrep-SUMO cleaved; N-terminal SNAP kept (SNAP-Surface 488); label: 3' end held by stalled T7 RNA polymerase.
On to B1, for which the dissociation constant Kd was approximately 43 nM.

Regarding B2, the Kd was 23 ± 4 nM.

On to B3, for which binding was characterised by a dissociation constant (Kd) of 18.2 ± 3.2 nM.

Regarding B4, binding was characterised by a dissociation constant (Kd) of 17.6 ± 3.55 nM.

For the molecule B5, the equilibrium dissociation constant (Kd) is 16.2 ± 3.15 nM.

B6: the dissociation constant (Kd) was determined as 11.7 ± 1.05 nM.

On to B7, for which the equilibrium dissociation constant (Kd) came out at 3.85 ± 1.9 nM.

As to B8, binding was characterised by a dissociation constant (Kd) of 61.5 ± 26 nM.

The molecule B9 showed a Kd of 11.5 ± 0.9 nM.

On to B10, for which the Kd was approximately 41 nM.

Regarding B11, the dissociation constant (Kd) turned out to be 22.5 ± 9 nM.

The molecule B12 registered a Kd of 13.8 ± 5 nM.

In turn, B13 had a Kd of 34.5 ± 6.5 nM.

For the molecule B14, the Kd amounted to 8.3 ± 1.1 nM.

Take B15: the dissociation constant Kd is 10.6 ± 1.1 nM.

For the molecule B16, the Kd is approximately 65 nM.

B17 returned a Kd of 46 ± 7.5 nM.

Molecule B18 showed an equilibrium dissociation constant (Kd) of 11.1 ± 0.5 nM.

The molecule B19 gave an equilibrium dissociation constant (Kd) of approximately 35 nM.

Molecule B20 displayed a dissociation constant Kd of 63 ± 14 nM.

Regarding B21, the equilibrium dissociation constant (Kd) was determined as 48 ± 13 nM.

Molecule B22 yielded a dissociation constant Kd of 29 ± 7 nM.

As to B23, the Kd was 32.5 ± 14 nM.

The values above are taken from article PMC10786891, “Massively parallel profiling of RNA-targeting CRISPR-Cas13d”.
